Source: US10877024B2, “Methods of determining interferon having direct inhibitory effects on tumors and uses thereof” (SUPERLAB FAR EAST LIMITED, priority 2015, dated 2020)

System: A549 xenograft tumors
Assay: Tumor growth of A549 xenografts in nude mice
Assay type: in vivo, BALB/c nude mice
Settings: 100 μg/100 μl per mouse intratumorally, every other day, 12 times; vs PBS
Protocol: This experiment was conducted in accordance to the National Institutes of Health Guide for the Care and Use of Laboratory Animals. Female BALB/c nude mice, 4-5 weeks old, were obtained from Shanghai Experimental Animal Center (Shanghai, China). About 5×10^6 A549 cells were subcutaneously injected into each mouse to establish xenograft tumors. […] The tumors were measured every three (3) days and the tumor volumes were calculated as follows: tumor volume (mm^3)=(length×width^2)/2. Data are shown as Mean±SD (n=8).

B1: rSIFN-co: Recombinant super-compound interferon; amino acid sequence SEQ ID NO: 1 (same as INFERGEN), encoded by novel nucleotide sequence SEQ ID NO: 2 (protein)
chain: MCDLPQTHSLGNRRALILLAQMRRISPFSCLKDRHDFGFPQEEFDGNQFQKAQAISVLHEMIQQTFNLFSTKDSSAAWDESLLEKFYTELYQQLNDLEACVIQEVGVEETPLMNVDSILAVKKYFQRITLYLTEKKYSPCAWEVVRAEIMRSFSLSTNLQERLRRKE
modifications: Amino acid sequence of recombinant interferon
- inhibition of tumor growth (tumor volume): almost completely inhibit growth of established tumors
